Assay results as given in the DeepSol protein solubility set.

Test: soluble on expression in E. coli; label from the status in PepcDB or PDB records

Row | Sequence | soluble on expression in E. coli
1 | GEKTYVKRLVKILLLGAGESGKSTFLKQMRIIHGQDFDQRAREEFRPTIYSNVIKGMRVLVDAREKLHIPWGDNKNQLHGDKLMAFDTRAPMAAQGMVETRVFLQYLPAIRALWEDSGIQNAYDRRREFQLGESVKYFLDNLDKLGVPDYIPSQQDILLARRPTKGIHEYDFEIKNVPFKMVDVGGLRSERKRWFECFDSVTSILFLVSSSEFDQVLMEDRQTNRLTESLNIFETIVNNRVFSNVSIILFLNKTDLLEEKVQVVSIKDYFLEFEGDPHCLRDVQKFLVECFRGKRRDQQQRPLYHHFTTAINTENIRLVFRDVKDTILHDNLKQLMLQ | soluble
2 | SQGRKPSSKLISFQRKLANETEIQKLNLSQSDYVVRMERVRYADKVPLVYEVASIPENLIKGFEQSEVTEHFFKTLTENGYEIGKSQQTIYARNASERVASHLEVNAGHAILALTQVSYFTDGKPFEYVHGQYVGDRFE | not soluble
3 | MKFLITGGAGFIGSNLAFALQERYPEAKIYVLDNFSSGHFKNLIGFKGQVITGDISDPSLWDYVRKNFHFDVIFHEAAITDTTVEDQYFMMKTNADSFRYILDLAVEWNAKVIYASSAGVYGNSPPPMREDKGLEPENIYGFSKLMMDHIAMDYMERYPEMNIVGLRYFNVYGPREDYKGKTASMIYQLAVKMIKGERPRLFKWGEQRRDFVYIKDVIKANLLALEKNVSGIFNVGTGRARSFNEIVSILNKELGTNYEIEYFDCPYDFYQKFTEADLTKIREALGYEPEYSLEEGIKDYLPYIIKRVKK | soluble
4 | LSWKRCAGCGGKIADRFLLYAMDSYWHSRCLKCSSCQAQLGDIGTSSYTKSGMILCRNDYIRLFGNSGACSACGQSIPASELVMRAQGNVYHLKCFTCSTCRNRLVPGDRFHYINGSLFCEHDRPTALINGHLNSGGSGGSGGSGGDVMVVGEPTLMGGEFGDEDERLITRLENTQFDAANGIDDETRESGSIEF | soluble
5 | MSGFYNRGKMKFIHAADIHLGNPISGIDRKINLPEEVKKQIALATFTAFSNVIKLAVDRHVDFVLFPGDLFDSSQQSAYLYNFLNQQFQNLKEAGIEAFISFGNHDFQSDVENDFIWPENVHAFPKSKAKTFFHDSWDGKRVAITGTSFVVRNPRESLVPLYPSRDQSATYQIGMYHGSQGNSSANNYAPFSVGDLQALNYDYWALGHIHVRQVLSKNPAIVYSGDPQGLDLTETGEKGVYFVSDENDQGGLTAEFVPCSSFVFDSFELSINDQSAISNISDLIVQELLSFNHKKMSLNAIRVNLSASLPEKILDQLTDTSFLDLVNSKTIREKQFLIKMDLNVDQKKDNFNQLEERYWQAAKNDVFDEQSFNQALLRTFNSNQQFVIRHFTDPNVQAKLMSKAEQIISERIS | not soluble
6 | MNLTNYHSHTLYCDGRAGMEDFIRFAISRGFTSYGISSHAPLPFPTHWTMEWDRMDDYLDEFTRMKEKYASEIELAVGLEIDYLNEDSNPSVRRFQELPLDYRIGSVHLLYNDRDEVVDIDVCAEVFRDIVDQHFGGDLDRVIHLYYDRLLRMVELGGFDILGHADKMHHNAACYRPGLLDESWYDALIHDYFSAVAAKGYIVEINTKALHHLNTFFPNERYFPLLKELGVRVQVNSDSHYPERINSGRPEALAALQKAGFETVTEWHGGKWIEMPLLEHHHHHH | soluble
7 | MKHDHFIVQSPAAPAQQLLLLFHGVGDNPVSMGQIGSWFAPQFPDALIVSIGGVEPCGPNGRQWFSLQGVTEENRQQRIDAIMPTFIEIVRYWQEKSGVSPLATALIGFSQGAIMSLESIKAAPDLASRVIAFNGRYATLPETATTATTIHLIHGGEDRVIDLAWAVSAEEALQQAGGDVTLDIVDDLGHAIDDRSMQLAIERLRYTVPKHY | not soluble
8 | GAMAWGSSWLLLKNLTAQIDGPTLRTLCMQHGPLVSFHPYLNQGIALCKYTTREEANKAQMALNNCVLANTTIFAESPSENEVQSIMQH | soluble
9 | MGSDKIHHHHHHMAAGCTTPMERRQANGNDEYVNAQTTAPLKVPEGLKSPNYSREYDIPTLGAKANRELVGKNLDIRPPLQVLPMAEGTRVEEGSDNVKVIVESFDNSLDLKQEIFGLLKDHLQSRNIEIVKEDFASGTLETGWIETQEVLESSLWGSDKVFNLKQRYQYQVEVRPHGRTGAVIINLVDHQESYDGDDLKTALSADDKRRYAIDMLNNSIAYMAVKREQAIKAKRVRESLGIGVELVDGAEEGDAFYLAQGDSIRYGLT | not soluble
10 | MSLEENDDDMVGMVDLKIDLERVVRNAVDDAKEVCTQHYGDCPDVKFIISKDANTMRFPHMSSTITYIVVELMKNAFRATVESHMERNSAGMVDCSNMPPVEVLVNIKKNAKHACICVSDEGLGMTRAQCELAMTYAYTTVKRPVIQHGADEDPEEERNGVSPLAGYGFGLPMSRVYAQAFGGDLVMSTMEGYGTRVYYYIKEGHHHHHH | soluble
11 | MAHHHHHHMAKEYPILVVPCKRGGIPCLTPDQARAILNEEERVISVSIFDASEFVDPCKKANQGFAEFCGLGEFRTILTVRSPHIGMHASAPATDAGLCANHEKGRISLGMDKWKEMVLPLRPEIAIPPYDSVSINEPQKKRRRTAMTRSAKWATSADSLQGNGNCKLMKPLCAAENNGEFVFLEELCQNETLQQYTYHVKEAINKGQVMSTAISLPSLLICLKYNVCFIESAIPWILAEKGIGLVFDFNPVSGVSPARYETQIDLNDDCFTKDIRPLSPDCNCYTCKRHMRAYIHHLLTVQEMNSKTLLVIHNLTRLIQLVRLYRILDAEDREALLNWLFAQF | not soluble
12 | MFGGDVSAASVLPSHPISGSCDGFQAEGSDHHHSTMTPFQESQRNVYQILYGHPANDDFPRPITPLQITIPEGDASPTVPVSCGVVNGKMHLNLFMCPGIHQPCIEVGNDLLSPKQFTIRGDKERQKDWKASIRVGRSSLRTHMEAMTIDFYEHMNRCSGKCQSRNYVNAPSEEVLQARKSKRTSEAGQLKYEIENEMAGKEADNDDNRKSAKKARGRPRGSVNKPRQMVKMEPQDDRFFEEFFIDAPPLQSMSSNEEPTSSNKESNECTPFNDILNCLQNDPMNFWSQMQQTGVIGHFCDDIIVSAINLKQSVMDNPVTPTTANMLTRTAFALGIPPVVVHRVQSIERNAYQQRKHDEMFNDIQSTLAEEHSVKYQPRTSSSSQESLHTAREFTEEKVEELIDVCKYDDYPESECLPGPSHIQ | not soluble
13 | GAMGMESLFPNKGEIIRELLKDPLILKNDSKRSNGSELELDSSDLLQREAILANELNILDNLKTFLNLIKEVKTNLNILELENCYYSLQSLRKKMRNNAAYLKQSFNFQQSISTYVDTLHLELVSTLYKILTNGFWKITENSIQFTPTVEWGKDKVHIEYDTFMDFVAQQYFPKGSLDNQAWFILDMTSADSQEQVRAKLNTIMKEYMNLSRIVSMIKNSIFISGKEISYENEKNILVFSKSSSHGQHCVSTVLTSFEAVCDFMLDGLAFRDRKTLSYELGPLFNTEFTKFVKNNASIILESLDSPLKNLVSVINNKLTRLVAKSEVTNWTHSGKEIQDLLMNKQLYYNLLLDKVLESHISEIRS | soluble
14 | MHNVVITAAVRSPIGTFGGALKNVTPVELAVPVLQEAVKRGGVEPHEVDEVILGHCIQRTDEANTARTAALAAGFPDTVTGYTIQRQCSSGMQAIMSAAMQIQLGVSEVVVAGGVEAMSSSPYALKQHRWGQRLQHGEIRDTVWEVLEDPIHHIMMGETAENLVEQYEITREEQDEVALRSHTLALKAIESGYFDDQIVPITIKERRKEVVFSKDEHPRADITAEKLAGLKPAFRKDGSVTAGNASGLNDGSAVLVLMSEEKAKEKGLQPLARIVGYSVAGVDPKIMGIGPAPAIRKGLEKVDWSLEDADLLEINEAFAAQYLAVEKELGLDREKVNVNGSGVGLGHPIGCTGARITVSLIHELKRRGLEKGIASLCVGGGIGVALFIEAL | not soluble
15 | GDQPVINFGIISTESSQNLKSIWEPFLKDMSQQTGYQVKAFFAPDYAGIIQGMRFDKVDIAWYGNKAAMEAVDRAHGEIFAQTVAASGAPGYWSLLIANKDSKIDSLEDMLANAKSLTFGNGDPNSTSGYLVPGYYVFAKNNVDPVKAFKRTLNSSHEVNALAVANKQVDVATFNTEGMERLELTQPEKARQLKVIWKSPLIPGDPLVWRNNLSDEQKNKLRDFFFKYGANAEQKKVLADLQWSKFQASDDDQLLPIRQLELFKQRTDVANNANLGAEEKAAKLKALDEELAKLEKRMAEREQKTAANAG | soluble
16 | MFQKLLAFLTVVVFVSAAGNSCKIGKVINKPVIDGTPVYWPASWNETQPAPQLEKEQSCSWYVTIPRGYYAKLIISGKTTDKDSRFQTVDSAGNLIQTTHEKMVPYYFPASKFTLAVSNEGSATFAFKVVWWPLPTEKYVDIVASIGQVINVTETVVAMEYAAPGGITLLTFPEDLKNYNSLRSTLIYDGSSLTSATYVSNLFLLNQSKKQWTSSQDGIVVVNVEASRSMNKLLIQGSVYLAGIDEIVELHPQPNSIYNGTVNAGAHMSSLVAVSDLELQMIDVQMKDDSTVSVYYGSPDAFTLDKTYTGAELKKALPLPFGGYFVQFVVSSGKAVFTFKS | not soluble
17 | MNDIWWQTYGEGNCHLVLLHGWGLNAEVWHCIREELGSHFTLHLVDLPGYGRSSGFGAMTLEEMTAQVAKNAPDQAIWLGWSLGGLVASQMALTHPERVQALVTVASSPCFSAREGWPGIKPEILGGFQQQLSDDFQRTVERFLALQTLGTETARQDARTLKSVVLAQPMPDVEVLNGGLEILKTVDLREALKNVNMPFLRLYGYLDGLVPRKIVPLLDTLWPHSTSQIMAKAAHAPFISHPAAFCQALMTLKSSL | not soluble
18 | GKDFTYNASLTFSHARNEIRNMDEPATKTAYRKQEGHPINQYFGLVCDGFVTQADLNNPDFPVSTFGNVQVGDLKYRDMNGDGFIDSRDETFIGYSDVPENTYALSLGCEYKGIGFSIMFQGVDHVSRYYDAEAMYAFVNGGKVKEHHLNRWNPNQSEAYNLTHASYPLLHYDSYGDHNQRKNSFFLKNGNFLRLKNIELSYSLPARWIRKVAMNECRVYVNANNLITWDKLDGLCDPESEGSNRYPIMKTVNFGVNIKF | not soluble
19 | MFMEVSLTSLPAHVMNALDAIWEGSIADSLESETLEFKEDPSCAGRGKQHGNPQAALIEKLIDEAVCLANGDAGTGHIVVGIKDKIGGPEAFTGTTFDTEKIAKKIFDGTRPNLRPEVHEVRYQNNRLIVIYIPEALSLYSRSKGQTSKRVGSHCEPLSEEQRRAIAATRAHADYSNGISEFNVDDIAADTIQEVRRLLKTKRAQSGIDTSLPTTTNGLLRELGLIDNYGALKRAGAILLLPAPEGQLSIRHFWRSFPGIDPEVTDYNQPLLIALSSLKRRITENANKEIKRIQFSDGQEIAVSAFPQTAVDEVVTNAIIHRDWRLSRPVVIDQSPQTLKVWSPGSLPVGVTPNRLLTTQSIPRNSRLMSAMRMLGLAEESSRGFDRIWAALLGSGRDIPDVHTEDTFVEVILHSGNPDESFIKALHELSLSFNPDMLHSVNTLIVLWHLWTSPVISLKQARVKTQTSSKEATELMFALESNGLLTQIHNTDEWFLSEKARKTTNYYQSETIPQSSVQTWVEEKLSSGSPISAAEIAESIGMPRPEITEILRNLRRAGKAHIDPSGPQRGSGTRWIKGT | not soluble
20 | MLDKTRLRIAMQKSGRLSDESQELLSRCGIKINLQQQRLIAFAENMPIDILRVRDDDIPGLVMDGVVDLGIIGENVLEEELLNRRAQGDDPRYFTLRRLDFGGCRLSLAAPLDAEYTGPQCLQDTRIATSYPHILKQYLDKQGVRFKSCLLNGSVEVAPRAGLADAICDLVSTGATLEANGLREVEVIYRSKACLIQRDGEMSVDKQQLIDRLMTRIQGVIQARESKYIMMHAPSERLDEIITLLPGAERPTILPLAGDKSRVAMHMVSSETLFWETMEKLKALGASSILVLPIEKMME | not soluble
21 | MSTQSILTKPTEATAFQPDQVVRILETVLLTTPEPLSISDLKKLFEGNIDKKTLHESLTILSEKWHDSGINLVSVAGGWRFQSKPEMQVFLDRLNPQRPPRYSRAVMETLAIIAYRQPVTRGDIEEIRGVAVSTQIIKTLESRGWIETIGQRDIPGKPYLYATTRHFLDDLNLQSLEQLPSLDSFNSLDLSADEAESVDTDTTTIQESGEPASHEPTQLL | not soluble
